Target: T1, human CD5 cell differentiation marker (human, UniProt P06127 25-495)
T1 sequence: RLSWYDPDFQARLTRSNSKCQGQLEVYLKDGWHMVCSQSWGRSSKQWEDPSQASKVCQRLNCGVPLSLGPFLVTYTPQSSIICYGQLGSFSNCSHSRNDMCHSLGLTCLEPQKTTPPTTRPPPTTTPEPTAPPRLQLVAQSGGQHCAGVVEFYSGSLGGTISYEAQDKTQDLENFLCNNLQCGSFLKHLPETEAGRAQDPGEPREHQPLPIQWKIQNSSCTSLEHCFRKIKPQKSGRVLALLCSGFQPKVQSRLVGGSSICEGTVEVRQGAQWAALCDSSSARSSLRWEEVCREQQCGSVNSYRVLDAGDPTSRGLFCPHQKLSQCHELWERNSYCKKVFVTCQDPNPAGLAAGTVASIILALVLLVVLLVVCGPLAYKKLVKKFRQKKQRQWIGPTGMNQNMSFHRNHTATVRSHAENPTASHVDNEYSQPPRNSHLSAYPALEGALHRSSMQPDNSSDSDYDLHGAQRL
Experiment: cell-based or functional assay

B1: he3Fab-rGelA50(C44) (other, not shown: a dimerising Fc or GST)
heavy: EIQLVQSGGGLVKPGGSVRISCAASGYTFTNYGMNWVRQAPGKGLEWMGWINTHTGEPTYADSFKGRFTFSLDDSKNTAYLQINSLRAEDTAVYFCTRRGYDWYFDVWGQGTTVTVSS
light: DIQMTQSPSSLSASVGDRVTITCRASQDINSYLSWFQQKPGKAPKTLIYRANRLESGVPSRFSGSGSGTDYTLTISSLQYEDFGIYYCQQYDESPWTFGGGTKLEIK
chain: GLDTVSFSTKGATYITYVNFLNELRVKLKPEGNSHGIPLLRKKCDDPGKAFVLVALSNDNGQLAEIAIDVTSVYVVGYQVRNRSYFFKDAPDAAYEGLFKNTIKTRLHFGGSYPSLEGEKAYRETTDLGIEPLRIGIKKLDENAIDNYKPTEIASSLLVVIQMVSEAARFTFIENQIRNNFQQRIRPANNTISLENKWGKLSFQIRTSGANGMFSEAVELERANGKKYYVTAVDQVKPKIALLKFVDKDPK
modifications: Cys 44 disulfide-linked through an M2IT linker to the Fab
IC50, whole cell cytotoxicity (inhibition of protein synthesis), CEM cells: 173 pM T | IC50, whole cell cytotoxicity (inhibition of protein synthesis), HSB2 cells: 165 pM T

From patent US20050054835A1 (XOMA TECHNOLOGY, published 2005)
